{"source": "IntAct's records for PubMed 31515488", "parents": {"B1": {"name": "Fibronectin type III and SPRY domain-containing protein 2 (Homo sapiens), A1L4K1 (parent)", "chain": "MEEESGEELGLDRSTPKDFHFYHMDLYDSEDRLHLFPEENTRMRKVVQAEMANESRGAGDGKAQRDLQEEVDELVHLYGLEDDHELGDEFVDENIPRTGVSEYPPYMMKRRDPAREQRDWRLSGEAAEAEDLGFGGWGSAGQCQDLREAYRYTHGRASEEYECYVIPEEEDEEEAADVFCVTCKTPIRAFQKVFDEHKEHEVIPLNEALESAKDEIHKNMYKLEKQIIEMENFANHLEEVFITVEENFGKQEQNFESHYNEILETLAQKYEEKIQALGEKKKEKLEALYGQLVSCGENLDTCKELMETIEEMCHEEKVDFIKDAVAMADRLGKFLKTKTDVEISAQPEFEDQTLDFSDVEQLMGSINTIPAPSAPVINPQVPNSATGSSVRVCWSLYSDDTVESYQLSYRPVQDSSPGTDQAEFTVTVKETYCSVTNLVPNTQYEFWVTAHNRAGPSPSSERAVYMTAPSPPIIKTKEIRSCEEAVLICWESGNLNPVDSYTVELTQAESPEASGVTESVVGIPTCESVVQLQPGRSYIIYVRALNMGGPSVRSEPATVHTIGSYFRLNKDTCHPWLTISEDGLTAVRSERRTPARELSPSDTHFTRCVAVMGNLIPVRGHHYWEVEVDEHLDYRVGVAFADVRKQEDLGANCLSWCMRHTFASSRHKYEFLHNRTTPDIRITVPPKKIGILLDYEHSKLSFFNVDLSQHLYTFSCQLHEFVHPCFSLEKPGCLKVHNGISMPKHVTFY", "partner": "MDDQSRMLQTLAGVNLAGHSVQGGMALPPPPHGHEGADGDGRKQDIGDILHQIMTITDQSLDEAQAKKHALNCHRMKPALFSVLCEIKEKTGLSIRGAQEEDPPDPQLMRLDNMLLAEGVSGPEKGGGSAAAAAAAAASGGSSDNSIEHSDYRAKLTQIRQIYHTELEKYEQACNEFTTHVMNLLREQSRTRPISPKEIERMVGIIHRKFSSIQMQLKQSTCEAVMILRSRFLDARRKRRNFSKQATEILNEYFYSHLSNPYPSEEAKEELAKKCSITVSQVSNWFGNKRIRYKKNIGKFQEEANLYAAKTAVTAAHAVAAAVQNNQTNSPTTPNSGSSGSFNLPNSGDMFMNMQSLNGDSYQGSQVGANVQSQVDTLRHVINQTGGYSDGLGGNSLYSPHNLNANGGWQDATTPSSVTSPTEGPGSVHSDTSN"}, "B2": {"name": "Nucleoplasmin-3 (Homo sapiens), O75607 (parent)", "chain": "MAAGTAAALAFLSQESRTRAGGVGGLRVPAPVTMDSFFFGCELSGHTRSFTFKVEEEDDAEHVLALTMLCLTEGAKDECNVVEVVARNHDHQEIAVPVANLKLSCQPMLSLDDFQLQPPVTFRLKSGSGPVRITGRHQIVTMSNDVSEEESEEEEEDSDEEEVELCPILPAKKQGGRP", "partner": "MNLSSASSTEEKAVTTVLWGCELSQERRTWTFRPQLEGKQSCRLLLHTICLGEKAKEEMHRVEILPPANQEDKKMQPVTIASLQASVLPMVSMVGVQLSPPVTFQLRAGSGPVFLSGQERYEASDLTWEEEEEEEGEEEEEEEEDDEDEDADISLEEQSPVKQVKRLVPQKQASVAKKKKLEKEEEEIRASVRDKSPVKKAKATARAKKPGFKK"}, "B3": {"name": "Baculoviral IAP repeat-containing protein 7 (Homo sapiens), Q96CA5 (parent)", "chain": "MGPKDSAKCLHRGPQPSHWAAGDGPTQERCGPRSLGSPVLGLDTCRAWDHVDGQILGQLRPLTEEEEEEGAGATLSRGPAFPGMGSEELRLASFYDWPLTAEVPPELLAAAGFFHTGHQDKVRCFFCYGGLQSWKRGDDPWTEHAKWFPSCQFLLRSKGRDFVHSVQETHSQLLGSWDPWEEPEDAAPVAPSVPASGYPELPTPRREVQSESAQEPGGVSPAEAQRAWWVLEPPGARDVEAQLRRLQEERTCKVCLDRAVSIVFVPCGHLVCAECAPGLQLCPICRAPVRSRVRTFLS", "partner": "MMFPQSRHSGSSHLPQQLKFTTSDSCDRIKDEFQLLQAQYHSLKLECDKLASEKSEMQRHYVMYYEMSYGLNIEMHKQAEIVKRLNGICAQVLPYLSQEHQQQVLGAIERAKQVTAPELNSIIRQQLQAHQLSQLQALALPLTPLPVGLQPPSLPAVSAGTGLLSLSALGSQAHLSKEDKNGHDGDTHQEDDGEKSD"}, "B4": {"name": "Four and a half LIM domains protein 3 (Homo sapiens), Q13643 (parent)", "chain": "MSESFDCAKCNESLYGRKYIQTDSGPYCVPCYDNTFANTCAECQQLIGHDSRELFYEDRHFHEGCFRCCRCQRSLADEPFTCQDSELLCNDCYCSAFSSQCSACGETVMPGSRKLEYGGQTWHEHCFLCSGCEQPLGSRSFVPDKGAHYCVPCYENKFAPRCARCSKTLTQGGVTYRDQPWHRECLVCTGCQTPLAGQQFTSRDEDPYCVACFGELFAPKCSSCKRPIVGLGGGKYVSFEDRHWHHNCFSCARCSTSLVGQGFVPDGDQVLCQGCSQAGP", "partner": "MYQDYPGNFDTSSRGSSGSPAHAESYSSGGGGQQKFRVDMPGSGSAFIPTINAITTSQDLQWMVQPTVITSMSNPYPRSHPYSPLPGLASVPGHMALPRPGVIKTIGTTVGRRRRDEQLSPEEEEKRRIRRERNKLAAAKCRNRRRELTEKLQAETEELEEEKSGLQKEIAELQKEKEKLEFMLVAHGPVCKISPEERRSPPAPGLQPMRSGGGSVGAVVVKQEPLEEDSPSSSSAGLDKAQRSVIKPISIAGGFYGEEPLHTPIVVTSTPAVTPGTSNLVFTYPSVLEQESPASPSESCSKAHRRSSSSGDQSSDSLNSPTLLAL"}, "B5": {"name": "Protein boule-like (Homo sapiens), Q8N9W6 (parent)", "chain": "MQTDSLSPSPNPVSPVPLNNPTSAPRYGTVIPNRIFVGGIDFKTNESDLRKFFSQYGSVKEVKIVNDRAGVSKGYGFVTFETQEDAQKILQEAEKLNYKDKKLNIGPAIRKQQVGIPRSSIMPAAGTMYLTTSTGYPYTYHNGVAYFHTPEVTSVPPPWPSRSVCSSPVMVAQPIYQQPAYHYQATTQYLPGQWQWSVPQPSASSAPFLYLQPSEVIYQPVEIAQDGGCVPPPLSLMETSVPEPYSDHGVQATYHQVYAPSAITMPAPVMQPEPIKTVWSIHY", "partner": "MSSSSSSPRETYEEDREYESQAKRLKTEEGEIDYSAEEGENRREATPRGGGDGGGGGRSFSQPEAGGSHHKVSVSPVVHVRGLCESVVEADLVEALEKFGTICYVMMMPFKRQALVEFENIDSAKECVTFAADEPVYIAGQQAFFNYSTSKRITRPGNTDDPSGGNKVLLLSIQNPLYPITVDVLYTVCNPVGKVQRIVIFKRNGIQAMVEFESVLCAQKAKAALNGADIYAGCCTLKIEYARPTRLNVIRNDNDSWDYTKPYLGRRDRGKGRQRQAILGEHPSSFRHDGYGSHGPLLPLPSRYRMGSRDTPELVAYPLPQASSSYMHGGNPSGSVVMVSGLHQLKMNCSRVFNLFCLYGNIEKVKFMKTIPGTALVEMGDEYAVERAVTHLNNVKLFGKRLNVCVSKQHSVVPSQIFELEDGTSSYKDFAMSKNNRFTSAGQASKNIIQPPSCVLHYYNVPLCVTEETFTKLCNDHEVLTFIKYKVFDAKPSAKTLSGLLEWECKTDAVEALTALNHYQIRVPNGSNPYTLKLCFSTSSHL"}, "B6": {"name": "Zinc finger protein RFP (Homo sapiens), P14373 (parent)", "chain": "MASGSVAECLQQETTCPVCLQYFAEPMMLDCGHNICCACLARCWGTAETNVSCPQCRETFPQRHMRPNRHLANVTQLVKQLRTERPSGPGGEMGVCEKHREPLKLYCEEDQMPICVVCDRSREHRGHSVLPLEEAVEGFKEQIQNQLDHLKRVKDLKKRRRAQGEQARAELLSLTQMEREKIVWEFEQLYHSLKEHEYRLLARLEELDLAIYNSINGAITQFSCNISHLSSLIAQLEEKQQQPTRELLQDIGDTLSRAERIRIPEPWITPPDLQEKIHIFAQKCLFLTESLKQFTEKMQSDMEKIQELREAQLYSVDVTLDPDTAYPSLILSDNLRQVRYSYLQQDLPDNPERFNLFPCVLGSPCFIAGRHYWEVEVGDKAKWTIGVCEDSVCRKGGVTSAPQNGFWAVSLWYGKEYWALTSPMTALPLRTPLQRVGIFLDYDAGEVSFYNVTERCHTFTFSHATFCGPVRPYFSLSYSGGKSAAPLIICPMSGIDGFSGHVGNHGHSMETSP", "partner": "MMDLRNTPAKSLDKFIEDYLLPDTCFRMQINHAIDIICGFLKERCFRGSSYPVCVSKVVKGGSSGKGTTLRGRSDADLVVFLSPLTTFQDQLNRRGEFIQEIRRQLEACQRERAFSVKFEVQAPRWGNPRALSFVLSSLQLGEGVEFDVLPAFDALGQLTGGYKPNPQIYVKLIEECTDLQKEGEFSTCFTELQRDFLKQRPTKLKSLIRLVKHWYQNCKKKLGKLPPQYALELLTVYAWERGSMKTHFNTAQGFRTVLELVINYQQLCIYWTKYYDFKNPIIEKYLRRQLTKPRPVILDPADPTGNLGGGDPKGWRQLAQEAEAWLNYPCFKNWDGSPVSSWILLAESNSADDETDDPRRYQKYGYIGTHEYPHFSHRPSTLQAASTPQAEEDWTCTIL"}, "B7": {"name": "Alpha-ketoglutarate-dependent dioxygenase alkB homolog 4 (Homo sapiens), Q9NXW9 (parent)", "chain": "MAAAAAETPEVLRECGCKGIRTCLICERQRGSDPPWELPPAKTYRFIYCSDTGWAVGTEESDFEGWAFPFPGVMLIEDFVTREEEAELVRLMDRDPWKLSQSGRRKQDYGPKVNFRKQKLKTEGFCGLPSFSREVVRRMGLYPGLEGFRPVEQCNLDYCPERGSAIDPHLDDAWLWGERLVSLNLLSPTVLSMCREAPGSLLLCSAPSAAPEALVDSVIAPSRSVLCQEVEVAIPLPARSLLVLTGAARHQWKHAIHRRHIEARRVCVTFRELSAEFGPGGRQQELGQELLRIALSFQGRPV"}}, "data": [{"variants_of": "B1", "settings": "with pbx3_human PBX3, P40426", "values": [{"variant": "E720K", "effect of a mutation on the interaction": "with no effect"}, {"variant": "K333T", "effect of a mutation on the interaction": "with no effect"}]}, {"variants_of": "B2", "settings": "with npm2_human NPM2, Q86SE8", "values": [{"variant": "E149K", "effect of a mutation on the interaction": "with no effect"}]}, {"variants_of": "B3", "settings": "with tle5_human TLE5, Q08117", "values": [{"variant": "H164R", "effect of a mutation on the interaction": "with no effect"}]}, {"variants_of": "B3", "settings": "with tle5_human TLE5, Q08117", "remark": "another data set of the same source", "values": [{"variant": "H164R", "effect of a mutation on the interaction": "with no effect"}]}, {"variants_of": "B4", "settings": "with fosl2_human FOSL2, P15408", "values": [{"variant": "R226H", "effect of a mutation on the interaction": "with no effect"}]}, {"variants_of": "B5", "settings": "with hnrll_human HNRNPLL", "values": [{"variant": "S9Y", "effect of a mutation on the interaction": "with no effect"}, {"variant": "V78I", "effect of a mutation on the interaction": "with no effect"}, {"variant": "M270I", "effect of a mutation on the interaction": "with no effect"}]}, {"variants_of": "B6", "settings": "with oas1_human OAS1, P00973", "values": [{"variant": "N355S", "effect of a mutation on the interaction": "disrupting interaction strength"}]}, {"variants_of": "B7", "settings": "with dtx2_human DTX2, Q86UW9", "values": [{"variant": "R239C", "effect of a mutation on the interaction": "with no effect"}]}]}
